For the assay, the target named is T1, alpha subunit of the human FcεRI receptor (IgE high affinity receptor), expressed on Chinese hamster ovary … (human, UniProt P12319 26-257).
T1 construct: whole, on cells; also called CHO FcεRI+ cells; FcεRIα
T1 sequence (looked up): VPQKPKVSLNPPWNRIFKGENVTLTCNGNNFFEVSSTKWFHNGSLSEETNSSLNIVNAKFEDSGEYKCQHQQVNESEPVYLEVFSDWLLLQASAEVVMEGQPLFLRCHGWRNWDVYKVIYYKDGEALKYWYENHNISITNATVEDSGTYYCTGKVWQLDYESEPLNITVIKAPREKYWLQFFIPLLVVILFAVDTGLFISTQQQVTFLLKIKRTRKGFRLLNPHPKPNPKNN
Briefly: inhibition of 125I-IgE binding to CHO cells expressing human FcεRI alpha; competitor IgE. The method, then: To determine the ability of peptides to inhibit IgE binding to FcεRI, a cell-based binding assay was used with radiolabeled IgE. Chinese hamster ovary cells expressing the alpha subunit of the human FcεRI receptor were cultured overnight in Falcon 96 well microtiter plates at a concentration of 5 ×10^4 cells per well. The following day the cells were rinsed three times with PBS and then once with F12/DMEM. Peptide stocks were reconstituted in 100 mM Hepes buffered water, pH 7.2, at a concentration of 5 mg/mL. Working concentrations of the peptide were diluted in assay buffer (see below). 75 uL of a desired concentration of peptide was added to the top row of a separate 96 well microtiter plate and serially diluted 1:3 in 50 uL of the assay buffer (F12/DMEM, 1% BSA, 0.05% NaN_3 and 0.025 mM Hepes pH 7.2). Starting concentrations ranged from 50–500 uM. Next, 50 uL of the diluted peptide was transferred to the 96 microtiter well plate containing a monolayer of CHO FcεRI+ cells. […] Cells were […]

Bridges are numbered along the chain shown (N, C = ends). Where no end group is shown, it is not given here.

B1: IGE141 (peptide)
peptide: IVCPRLCYELDYELCPDVCYV-NH2
modifications: cysteine pairing not given here
What is called IC50 is the concentration at which inhibition is half-maximal. A lower IC50 goes with higher potency. B1 showed an IC50 of 131 nM.

B2: IGE134 (peptide)
peptide: VQCPHFCYELDYELCPDVCYV-NH2
modifications: not fully specified (bridges); cysteine pairing not given here
In turn, B2 had a half-maximal inhibitory concentration (IC50) of 32 nM.

B3: IGE190 (peptide)
peptide: VQCPDFCYELDYELCPDVCYV-NH2
modifications: not fully specified (bridges); cysteine pairing not given here
As to B3, the IC50 stood at 58 nM.

B4: IGE173 (peptide)
peptide: VQCPHFCYELDYELCPDKCYT-NH2
modifications: not fully specified (bridges); cysteine pairing not given here
Molecule B4 gave an IC50 of 61 nM.

B5: IGE174 (peptide)
peptide: VQCPHFCYELDYELCPWKCYT-NH2
modifications: not fully specified (bridges); cysteine pairing not given here
On to B5, for which the IC50 was found to be 172 nM.

B6: IGE175 (peptide)
peptide: VQCPHFCYELDYELCPWVCYV-NH2
modifications: not fully specified (bridges); cysteine pairing not given here
Consider B6, for which the IC50 was 57 nM. This IC50 lies about 3-fold lower than the previous one.

B7: IGE128 (peptide)
peptide: KSCPLWCYVGGKALCPDVCYV-NH2
modifications: not fully specified (bridges); cysteine pairing not given here
In turn, B7 gave an IC50 of 240 nM.

B8: IGE151 (peptide)
peptide: VQCPHFCYFGGAELCPDVCYV
modifications: not fully specified (bridges); cysteine pairing not given here
Turning to B8, the half-inhibitory concentration (IC50) came out at 130 nM.

B9: IGE123 (peptide)
peptide: VKCPSLCYVGGKALCPDVCYV-NH2
modifications: not fully specified (bridges); cysteine pairing not given here
Take B9: the half-inhibitory concentration (IC50) was 180 nM.

B10: IGE124 (peptide)
peptide: VPCPELCYVGGKALCPDVCYV-NH2
modifications: not fully specified (bridges); cysteine pairing not given here
B10 returned an IC50 of 890 nM. This IC50 is about 4.9-fold higher than that of the molecule before.

B11: IGE152 (peptide)
peptide: VQCPHFCYFGAELCPDVCYV
modifications: disulfide 7-14, 3-18
In turn, B11 came in with an IC50 of 52 nM. Compared with the last molecule, the IC50 is about 17-fold lower.

B12: IGE169 (peptide)
peptide: VQCPHFCYFGAELCPAVCYV-NH2
modifications: disulfide 7-14, 3-18; N-terminus assumed
SMILES: CC(C)C[C@@H]1NC(=O)[C@H](CCC(=O)O)NC(=O)[C@H](C)NC(=O)CNC(=O)[C@H](Cc2ccccc2)NC(=O)[C@H](Cc2ccc(O)cc2)NC(=O)[C@@H]2CSSC[C@H](NC1=O)C(=O)N1CCC[C@H]1C(=O)N[C@@H](C)C(=O)N[C@@H](C(C)C)C(=O)N[C@H](C(=O)N[C@@H](Cc1ccc(O)cc1)C(=O)N[C@H](C(N)=O)C(C)C)CSSC[C@H](NC(=O)[C@H](CCC(N)=O)NC(=O)[C@@H](N)C(C)C)C(=O)N1CCC[C@H]1C(=O)N[C@@H](Cc1c[nH]cn1)C(=O)N[C@@H](Cc1ccccc1)C(=O)N2
Molecule B12 gave a 50% inhibitory concentration (IC50) of 128 nM.

B13: IGE153 (peptide)
peptide: VQCPHFCYELDYELCPDVCY-NH2
modifications: not fully specified (bridges); cysteine pairing not given here
B13: the IC50 was determined as 49 nM. This IC50 is about 2.6-fold lower than that of the molecule before.

B14: IGE130 (peptide)
peptide: ALCPDVCYVGGKVQCPHFCYV-NH2
modifications: disulfide 7-15, 3-19; N-terminus assumed
SMILES: CC(C)C[C@H](NC(=O)[C@H](C)N)C(=O)N[C@H]1CSSC[C@@H](C(=O)N[C@@H](Cc2ccc(O)cc2)C(=O)N[C@H](C(N)=O)C(C)C)NC(=O)[C@H](Cc2ccccc2)NC(=O)[C@H](Cc2c[nH]cn2)NC(=O)[C@@H]2CCCN2C(=O)[C@@H]2CSSC[C@H](NC(=O)[C@H](C(C)C)NC(=O)[C@H](CC(=O)O)NC(=O)[C@@H]3CCCN3C1=O)C(=O)N[C@@H](Cc1ccc(O)cc1)C(=O)N[C@@H](C(C)C)C(=O)NCC(=O)NCC(=O)N[C@@H](CCCCN)C(=O)N[C@@H](C(C)C)C(=O)N[C@@H](CCC(N)=O)C(=O)N2
As for B14, the half-maximal inhibitory concentration (IC50) amounted to 250 nM.

B15: IGE131 (peptide)
peptide: VQCPHFCYVGGKVQCPHFCYV-NH2
modifications: not fully specified (bridges); cysteine pairing not given here
For the molecule B15, the 50% inhibitory concentration (IC50) is 2300 nM.

B16: IGE146 (peptide)
peptide: VQCPHFCYVGEALCPDVCYV-NH2
modifications: disulfide 7-14, 3-18; N-terminus assumed
SMILES: CC(C)C[C@@H]1NC(=O)[C@H](C)NC(=O)[C@H](CCC(=O)O)NC(=O)CNC(=O)[C@H](C(C)C)NC(=O)[C@H](Cc2ccc(O)cc2)NC(=O)[C@@H]2CSSC[C@H](NC1=O)C(=O)N1CCC[C@H]1C(=O)N[C@@H](CC(=O)O)C(=O)N[C@@H](C(C)C)C(=O)N[C@H](C(=O)N[C@@H](Cc1ccc(O)cc1)C(=O)N[C@H](C(N)=O)C(C)C)CSSC[C@H](NC(=O)[C@H](CCC(N)=O)NC(=O)[C@@H](N)C(C)C)C(=O)N1CCC[C@H]1C(=O)N[C@@H](Cc1c[nH]cn1)C(=O)N[C@@H](Cc1ccccc1)C(=O)N2
On to B16, for which the half-maximal inhibitory concentration (IC50) came to 890 nM.

B17: IGE135 (peptide)
peptide: VQCPHFCYFGGAELCPDVCYV-NH2
modifications: cysteine pairing not given here
B17 showed an IC50 of 47 nM. Compared with the last molecule, the IC50 is about 19-fold lower.

B18: IGE191 (peptide)
peptide: VQCPDFCYFGGAELCPDVCYV-NH2
modifications: not fully specified (bridges); cysteine pairing not given here
B18 gave a concentration for half-maximal inhibition (IC50) of 210 nM.

B19: IGE136 (peptide)
peptide: VQCPHFCYFGGAELCPGVCYV-NH2
modifications: cysteine pairing not given here
For the molecule B19, the 50% inhibitory concentration (IC50) was determined as 119 nM. This IC50 is about 1.8-fold lower than that of the molecule before.

B20: IGE126 (peptide)
peptide: VTCPRWCYVGGKALCPDVCYV-NH2
modifications: cysteine pairing not given here
Turning to B20, the half-maximal inhibitory concentration (IC50) was 380 nM.

B21: IGE132 (peptide)
peptide: VQCPHFCYVGGHALCPDVCYVGR
modifications: not fully specified (bridges); cysteine pairing not given here
notes: produced as Z-domain fusion in E. coli and released with trypsin
B21 registered a half-inhibitory concentration (IC50) of 80 nM.

B22: IGE142 (peptide)
peptide: VQCAHFCYVGGHALCPDVCYVGR
modifications: disulfide (positions not given here)
notes: as for B21
Regarding B22, the IC50 worked out at 1000 nM.

B23: IGE145 (peptide)
peptide: VQCPDFCYVGGHALCPDVCYVGR
modifications: not fully specified; cysteine pairing not given here
notes: as for B21
Molecule B23 yielded an IC50 of 117 nM.

(Values after patent publication US7101851 (dated 2006).)
